Experimental data reported in paper PMC5501851, “A tyrosine aminotransferase involved in rosmarinic acid biosynthesis in Prunella vulgaris L” (Scientific Reports, 2017).

Legend:
[1] = biological target: T1, PvTAT (tyrosine aminotransferase of Prunella vulgaris) (Prunella vulgaris, UniProt A0A0U1ZFM1); assay: phenylpyruvate absorbance at […] nm, nonlinear Michaelis-Menten fit; assay type: biochemical; conditions: 10 mM α-ketoglutarate; 0.1 mM PLP, 0.75 mM EDTA, 125 mM potassium phosphate pH 8.0, 30 °C
T1 construct: gene tat; E. coli Rosetta (DE3); cloning primers translate to N-terminus MELQSSAQ and C-terminus FCERHSY

purified protein [2] = substrate: CC(=O)C(=O)O; assay: purified protein; assay type: biochemical, Prunella vulgaris; conditions: 5.5 mM L-Tyr as amino donor, 0.1 mM PLP, 0.75 mM EDTA, 125 mM potassium phosphate pH 8.0, 30 °C
purified protein [3] = substrate: N[C@@H](Cc1c[nH]c2ccccc12)C(=O)O; assay: purified protein; assay type: biochemical, Prunella vulgaris; conditions: 10 mM α-ketoglutarate, 0.1 mM PLP, 0.75 mM EDTA, 125 mM potassium phosphate pH 8.0, 30 °C
purified protein [4] = substrate: N[C@@H](Cc1ccc(O)cc1)C(=O)O; assay: purified protein; assay type: biochemical, Prunella vulgaris; conditions: 10 mM α-ketoglutarate, 0.1 mM PLP, 0.75 mM EDTA, 125 mM potassium phosphate pH 8.0, 30 °C
purified protein [5] = substrate: O=C(O)C(=O)Cc1ccc(O)cc1; assay: purified protein; assay type: biochemical, Prunella vulgaris; conditions: 10 mM L-Glu as amino donor, 0.3 mM NAD, 0.3 mM CoA, 0.75 mM EDTA, 125 mM potassium phosphate pH 8.0, 30 °C
purified protein [6] = substrate: O=C(O)C(=O)Cc1ccccc1; assay: purified protein; assay type: biochemical, Prunella vulgaris; conditions: 5.5 mM L-Tyr as amino donor, 0.1 mM PLP, 0.75 mM EDTA, 125 mM potassium phosphate pH 8.0, 30 °C
purified protein [7] = substrate: O=C(O)CC(=O)C(=O)O; assay: purified protein; assay type: biochemical, Prunella vulgaris; conditions: 5.5 mM L-Tyr as amino donor, 0.1 mM PLP, 0.75 mM EDTA, 125 mM potassium phosphate pH 8.0, 30 °C
purified protein [8] = substrate: O=C(O)CCC(=O)C(=O)O; assay: purified protein; assay type: biochemical, Prunella vulgaris; conditions: 5.5 mM L-Tyr as amino donor, 0.1 mM PLP, 0.75 mM EDTA, 125 mM potassium phosphate pH 8.0, 30 °C

## N[C@@H](Cc1ccccc1)C(=O)O [L-Phe]
[1]
  Km: 10.2 ± 0.05 mM

B1: PvTAT (tyrosine aminotransferase of Prunella vulgaris) (Prunella vulgaris) (protein)
chain: MELQSSAQELDAPTTITIKGILGLLVSSTDAKETGKRVISLGIGDPTAYSCFHVSNAAQEAVVEALRSQKFNGYAPTAGLPQAREAIAEYLSRDLPYKLPADSVYVTAGCTQAIEIALSVLARPGCNILLPRPCFPIYGLCASFRNIEVRYFDLHPEKGWEVDLDAVQDLADHNTVAMVIINPGNPCGNVYSHQHLRKVAEMAKRLGIVVIADEVYGQLAFGANPFVPMGIFGSIAPVVTLGSLSKRWLIPGWRLGWLVINDPDGSLMSPKFVERIKKYCDINGGPATFIQAAVPEIIEQTQEVFFRKTINILKQTSDICYQKVEDINGISCPTKPKGAMAFMVKLNISQMKDISDDIDFCFKLAKEESVIILPGIAVGLKNWIRITFAVEPSALEEAMERLKSFCERHSY
notes: E. coli Rosetta (DE3); cloning primers translate to N-terminus MELQSSAQ and C-terminus FCERHSY
Purified protein [2]
  Km: 52.06 ± 1.38 mM
  Vmax: 1.3 µmol/min/mg
  kcat: 0.89 ± 0.01 s⁻¹
  kcat/Km: 20 ± 3 M⁻¹ s⁻¹
Purified protein [3]
  Km: 8.14 ± 1.04 mM
  Vmax: 1.53 µmol/min/mg
  kcat: 1.05 ± 0.08 s⁻¹
  kcat/Km: 130 ± 8 M⁻¹ s⁻¹
Purified protein [4]
  Km: 0.40 ± 0.05 mM
  Vmax: 1.74 µmol/min/mg
  kcat: 1.19 ± 0.009 s⁻¹
  kcat/Km: 3030 ± 350 M⁻¹ s⁻¹
Purified protein [5]
  Km: 0.48 ± 0.004 mM
  Vmax: 0.18 µmol/min/mg
  kcat: 0.121 ± 0.01 s⁻¹
  kcat/Km: 295 ± 35 M⁻¹ s⁻¹
Purified protein [6]
  Km: 3.90 ± 0.067 mM
  Vmax: 0.43 µmol/min/mg
  kcat: 0.3 ± 0.01 s⁻¹
  kcat/Km: 76 ± 1 M⁻¹ s⁻¹
Purified protein [7]
  Km: 4.72 ± 0.05 mM
  Vmax: 1.06 µmol/min/mg
  kcat: 0.73 ± 0.01 s⁻¹
  kcat/Km: 150 ± 5 M⁻¹ s⁻¹
Purified protein [8]
  Km: 10.80 ± 0.19 mM
  Vmax: 0.92 µmol/min/mg
  kcat: 0.63 ± 0.002 s⁻¹
  kcat/Km: 60 ± 8 M⁻¹ s⁻¹
